Reference: patent US20030232325A1 (MOUNT SINAI SCHOOL OF MEDICINE OF NEW YORK UNIVERSITY, published 2003)

T1: rabies virus M protein (form used not stated; discussion of Example 9, data not shown) (rabies virus, UniProt P16287 1-202)
T1 sequence: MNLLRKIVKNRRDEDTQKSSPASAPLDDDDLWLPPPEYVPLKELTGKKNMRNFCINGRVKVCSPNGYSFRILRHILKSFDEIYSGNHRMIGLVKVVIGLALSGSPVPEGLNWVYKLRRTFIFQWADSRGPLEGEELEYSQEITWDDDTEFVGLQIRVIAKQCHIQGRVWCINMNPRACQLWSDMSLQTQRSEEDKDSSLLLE

T2: NS1-BP fragment (amino acids 347 to 619) expressed from the HeLa cDNA library plasmid p59-1 (activation … (human, UniProt Q9Y6Y0 347-611))
T2 sequence: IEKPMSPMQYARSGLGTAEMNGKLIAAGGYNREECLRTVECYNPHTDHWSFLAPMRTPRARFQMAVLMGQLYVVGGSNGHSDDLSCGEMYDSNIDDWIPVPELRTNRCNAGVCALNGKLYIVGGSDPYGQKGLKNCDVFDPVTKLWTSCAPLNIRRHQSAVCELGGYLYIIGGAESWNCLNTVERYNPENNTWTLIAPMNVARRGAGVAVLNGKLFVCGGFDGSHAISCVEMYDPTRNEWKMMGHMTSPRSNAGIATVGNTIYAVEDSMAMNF

T3: NS1I-1 fragment expressed from the HeLa cDNA library plasmid pK5 (activation domain fusion) (human, UniProt P51659 266-736)
T3 sequence: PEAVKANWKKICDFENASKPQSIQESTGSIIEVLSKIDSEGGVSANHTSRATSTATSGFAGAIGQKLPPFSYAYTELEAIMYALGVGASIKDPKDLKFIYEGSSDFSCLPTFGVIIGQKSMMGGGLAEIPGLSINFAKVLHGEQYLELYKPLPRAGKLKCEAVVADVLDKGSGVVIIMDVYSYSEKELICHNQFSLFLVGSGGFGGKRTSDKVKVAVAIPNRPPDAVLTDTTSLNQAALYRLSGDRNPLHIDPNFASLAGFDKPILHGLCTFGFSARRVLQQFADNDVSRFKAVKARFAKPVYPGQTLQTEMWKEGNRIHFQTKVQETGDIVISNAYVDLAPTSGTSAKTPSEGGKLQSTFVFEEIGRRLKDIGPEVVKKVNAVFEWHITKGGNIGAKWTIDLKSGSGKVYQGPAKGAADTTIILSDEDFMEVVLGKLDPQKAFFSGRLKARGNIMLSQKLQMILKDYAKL

B1: WW domain from ESS 1 (other)
chain: TGLPTPWTVRYSKSKKREYFFNPETKHSQWEEPEG
notes: domain: WW
B2: LexA-bicoid fusion protein (encoded by pRFHM1) (other)
chain: AQPPPDQNFYHHPLPHTHTHPHPHSHPHPHSHPHPHHQHPQLQLPPQFRNPFDLLFDERTGAINYNYIRPYLPNQMPKPEELPDSLVMRRPRRTRTTFTSSQIAELEQHFLQGRYLTAPRLADLSAKLALGTAQVKIWFKNRRRRHKIQSDQHKDQSYE
notes: also called LexA fused to a transcriptionally inert fragment of the Drosophila melanogaster bicoid protein

What was measured:
[1] = target: T1, rabies virus M protein (form used not …); assay: far-western blot presumably; data not shown
[2] = target: T2, NS1-BP fragment (amino acids 347 to …); assay: yeast interaction trap, lacZ reporter
[3] = target: T3, NS1I-1 fragment expressed from the HeLa …; assay: yeast interaction trap, lacZ reporter; pRFHM1 as control bait

Binder	binding result [1]	binding result [2]	binding result [3]
B1	no binding	–	–
B2	–	no binding	no binding
